# Measurements reported in the nanobody polyreactivity screen of Harvey et al. (2022).
# Test: yeast display, Sf9 membrane polyspecificity reagent, FACS + sequencing; frameworks hold sequencing errors
# Procedure, shortened: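 Genes from sorted yeast were amplified by colony PCR, read by MiSeq 2 × 250 sequencing and filtered on CDR length. These cells carried a synthetic nanobody library in Saccharomyces cerevisiae BJ5465 and were sorted by FACS into low and high (top ~1%) gates on anti-HA and streptavidin fluorescence. Polyreactivity is labelled according to the gate of origin.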
row,Sequence,polyreactivity (PSR sort gate)
1,QVHLVESGGGLVQAGGSLRLSCAASGRTFIYYAMGWYRQAPGKERELVAAISSGGSTDYADSVKGRFTISRDNAKNTVYLQMNSLKPEDTAVYYCSAVVGYITYYGYDYWGQGTQVTVSS,low polyreactivity
2,QVQLVESGGGLVQSGGSLRLSCAASGSIFDGYAMGWYRQAPGKERELVAAISKGGTRTYYADSVKGRFTISRDNAKNTVYLQMNSLKPEDTAVYYGNAYFRREPDDGDYDYWGQGTQVTVSS,high polyreactivity
3,QVQLVESGGGLVHAGGSLRLSCAASGSTFYYNAMGWNRPAPGKETELVARISRSGGSTYADSVKGRFTISRDNAKNTVYLQMNSLKPEDTAVYYCNADAYGTPEFTSYAVRYDYWGQGTQVTVSS,low polyreactivity
4,QVQLVESGGGLVQAGGSLRLSCAASGRTFSRNAMGWYRQAPGKERELVATISSSGVRTYYADSVKGRFTISRDNAKNTVYVQMNSLKPEDTGVYYCAAALRYFSAASGYDYWGQGTQVTVTS,low polyreactivity
5,QVQLVETGGGLVQAGGSLRLSCAASGSIQWNAMGWYRQAPGKERELVAVINTGGSTYADSVKGRFTISRDNAKNTVYLQMNMLKPEDTAVFYCAARVPFTLLKGKQYGYWGQGTQVTVSS,low polyreactivity
6,QVQLVESGGGLVQAGGSLRLSCAASGSTFTGYAMGWYRQAPGKERELVASISYSGGSTYYADSVKGRFTISRDNAKNTVYLQMNSLKPEDTAVYYCNALQQYALSRYYWGQGTQVTVSS,high polyreactivity
7,QVQLVESGGGLVQAGGSLRLSCAASGRTFGYYAMGWYRQAPGKERELVAAITRSGDRTYYADSVKGRFTISRDNAKNTVYLQLNSLKPEDTAVYYCARYAYLISDYWGQGTQVTVSS,high polyreactivity
8,QVQLVESCGGLVQAGGILRLSCAAYGRTFYKNAIGWYTQAPGKERELVAAMSSRGGRTTYADSVKGRFTISRDNAKYTVYLQMTSLKPEDTAVYYCAADWAQVYHGTPKYYYWGQGTQVTVSS,high polyreactivity
9,QVQLVESGGGLVQAGGSLRLSCAASGLTIFVNAMGCYRQAPGKERELVATISGGGSTYYADSVKGRFTISRDNAKNTVYLQMNSLKPEDTAVYYCNADVLFYTYYTRGRFDFDYWGQGTQVTVSS,low polyreactivity
10,QVLLQESGGALVQAGGSLRLSCAASGTISTDIRMGWYRLAPGKEPEFVASIDGCSTTYYADSVKVRFTISRDNEKNTVYLQMNSLKPEDTAMYYCAAREATEFYLYYWGQGTQVTVSS,low polyreactivity
11,QVQLVESGGGLVQAGGSLRLSCAASGSTFTLNAMGWYRQAPGKERELVAAITSGGRTKYADSVKGRFTISRDNAKNTVYLQMNSLKPEDTAVYYCAATFAGGYGYWGQGTQVTVSS,high polyreactivity
12,QVQLVESGGGLVQAGGSLRLSCADSGRIFVRNAMGWYRPAPGKERELVADSTNGGSTNYADSVKGRFTISRDNAKNTVYLQRNSQKPEDTAVYYCAADTLGVYDGDYWGQGTQVTVSS,low polyreactivity
13,QVQLVESGGGLVQAGGSLRLSCAASGRIFTIYAMGWYRQAPGKERELVAAISDRGTRTYYADSVKGRFTISRDNAKNTVYLQMISLKPEVTAVYYCATDALYTYGYDYWGQGTQVTVSS,low polyreactivity
14,QVQLVESGGGLVQAGGSLRISCAASGFTFSSYAMGRSRPAPGKERELVAGITIDGNTYYADSVKGRFTISRDNAKNTVYLQMNSLKPEDTAVYYCAAVAYYYGYDYWGQGTQVTVSS,low polyreactivity
15,QVQLVESGGGLVQAGGSHRLSCAASGRIFRRYAMGWYRQARGQERELDAGITGSGTSTYYADSVKGRFTISRDNAKNTVYLQMNSLKPEDTAVYYCAADRGRGYRYNYWGQGTQVTVSS,high polyreactivity
16,QVQLVESGGGLVQAGGSLRLSCAASGRIFFHYAMGWYRQAPGKERELVAVISSSGGITYYADSVKGRFTFSRDNAKNTVYLQMNSLKPEDTAVYYCNTVPRPFDRYGYWGQGTQVTVSS,low polyreactivity
17,QVQIVESGGGLFQAGGSLRLSSAASGNTFDKYAMGWYRQAPGKEREMVAAISSGGRTYYADSVKGRFTISRDNAKNTVYLQMNSLKPEDTAVYYCGKGSAGRGMDSWGQGTQVTVSS,low polyreactivity
18,QVQLVESGGGLVQAGGSLRLSCAASGSIFAYYAMGMYRQEPGKERELVAVIRSGGSTYYADSVKGRFTISRDNAKNTVYLQMNSLKPEDTAVYYCAARSYRPTRGDYWGQGTQVTVSS,high polyreactivity
19,QVQRVESGGGLVQAGGSLRLSCAASGFTFTDYAMGWYRQAPGKERELVAAITIGGGRTYYADSVKGRFTISRDNAKNTVYLQMNSLKPEDTAVYYCNARYQVPYGYWGQGTQVTVSS,low polyreactivity
20,QVQLVESGGGLVQAGGSLRLSCAASGSTFIPYAMGWYRQAPGKERELVAGINGGDGSTYYADSVKGRFTISRDNAKNTVYLQMNSLKPEDTAVYYCAKKNPLVFTSGMDYWGQGTQVTVSS,low polyreactivity
21,QVQLVESGGGLVQAGGSLRLSCAASGSTFTLYAMGWSRQAPGKERELVAAISRSGGRTYYADSVKGRFTISRDNAKNTVYLQMNSLKPEDTAVYYCNAPYKQDYDYWGQGTQVTVSS,high polyreactivity
22,QVQLVESGGGLVQAGGSLRLSCAASGRTLNYNVLGWYRQAPGKERELVASITSRGGSTRYADSVKGRFTISRDHAKNTVYLQMNSLKPEDTAGYYCAARYTTARSSYDYWGQGTQVTVSS,high polyreactivity

row,Sequence,polyreactivity (PSR sort gate)
1,QVQLVESGGGLVQAGGSLRLSCAASGRTFYRYAMGWYRQAPGKERELVAAITRRGDSTSYADSVKGRFTNSRDNAKNTVYLQMNSLKPEDTADYYCATLVQGSVYGLYGGGYWGQGTQVTVSS,low polyreactivity
2,QVQLVESGGGLVQAGGSLRLSCAASGRTFRSNAMGWYRQAPGKERELVAAIRTSGGSTYYADSVKGRFTISRDNAKNTVYLQMNSLKPEDTAVYYCNAELRDLEFDYWGQGTQVTVSS,low polyreactivity
3,QDQLVESGGGLVQAGGSLRLTCAASGSTFTLYVMGWYRQAPGKARELVAAISRGDTTNYADSVKGRFTISRDNAKNTVYLQMNSLKPEDTAVYYCAATYPTFFYWSKVYERDYWGQGTQVTVSS,low polyreactivity
4,QVQLVESGGGLVQAGGSLRLTCAASGSTFIFKKYVMGWYRQAPGSERELVAVISRRGDSTYYADSVKRPFTISRDNAKNTVYLQMNSLKPEDTAVYYCGAGYSTAGLARYDYWGQGTQVTVSS,high polyreactivity
5,QVQLVESGGGLVQAGCSLRLSCAASGFIFWENGLGWYRQAPGKERELVAAISSGGGRTYYADSVKGRFTISRDNAKHTVYLQMNSLKPEDTAVYYCNRARYYREFDFWGQGTQVTVSS,high polyreactivity
6,QVQLVESGGGLVQAGGSLRLSSAASGSTFPSYAMGWYRQAPGKERELVAAINSGGGTNYADSVKGRFTISRDNAKNTVYLQMNSLKPEDTAVYYCAKSRYDYTKTEGGYWGLGTQVTVSS,low polyreactivity
7,QVQLVESGGGLVQAGGSLRLSCAASGRTFVYYAMGWYRQAPGKERELVAAITWSGGRTYYADSVKGRFTISRDNAKNTVYLQMNSLKPEDTAVYYCNRDQWPWESGYAYNYWGQGTQVTVSS,low polyreactivity
8,QVQLVESGGGLVQAGGSLRLSCAASGRIFDGYDMGWYRQAPGKERELVAAITSVGSTNYADSVKGRFTISRDNAKNTVYLQMNSLKPEDTAVYYCAAVLYVFYDEYGYWEYFSQYDYWGQGTQVTVSS,low polyreactivity
9,QVQLVESGGGLVQAGGSLRLSCAASGFTFDWYAMGWYTQAPGKERELVAAITTSGGTTYYADSVKGRFTISRDNSKNNVYLKMISLKPEDPAVYFCAADYYYWYPVEKYDYCGQGTQVTVSS,low polyreactivity
10,QVQLVESGGGLVQAGGSLRLSCAASGFTFSYNAMGWYRQAPGKERELVAAISSTGTSTYYADSVKGRFTISRDNAKNTVYLQMNSLKPEDTAVYYCNAYGYDGYYAGRHGYWGQGTQVTVSS,low polyreactivity
11,QVQLVESGGGLVQAGGSLRLSCAASGFIFGDYAMGWYRPAPGKERELVAAITWSGDGTYYADSVKGRFTISRDNAKNTVYLQMNSLKPEDTAVYYCAADFSPRRYHNRSFGYWGQGTQVTVSS,low polyreactivity
12,QVQLVESGGGLVQAGGSLRLSCAASGRIFTTYAMGWYRQAPGKERELVAAISRSGGSTYYADSVKGRFTISRDNAKNTVYLQMNSLKPEDTAVYYCAARRRQEHVGRSSYARYDYWGQGTQVTVSS,high polyreactivity
13,QVHLVESGGGLVQAGGSLRLSCAASGFTIASYDMGWYRQAPGKERELVAAISKGGGRTYYADSVKGRFTISRDNSKNTVYLQMNSLQPEDTAVYYCAAYAPYPRRAYDYWGQGTQVTVSS,low polyreactivity
14,QVQLVESGGGLVQAGGSLRLSCAASGRIFRRYAMGWYRQAPGKERELVSAITSGSSTYYADSVKGRFTISRDNPKNTVNLQMISVKPEYSAVYYCAALGYTYKYYSYYWGHGTQVTVSS,high polyreactivity
15,QVQLVESGGGLVQAGGSLRLSCAASGFTFRYYPMGWYRQAPGKERELVAAISWDRDSTYYADSVKGRFTISRDHAKHTVYFQMNSLKPEDTAVYYCAPEYRSWGRYRYRFNYWGQGTQVTVSS,high polyreactivity
16,QVQLEESGGGLVQAGGSLRLSCAASGSIFNVNTIGWYRQAPGKEREFVAAISYSGGSTYYADSVKGRFTISRDNAKNTVYLQMNSLKAEDTALYYCNVSPTTSGDGGGYDSWGQGTQVTVSS,low polyreactivity
17,QVQLVESGGGLVQAGGSLRLSCAASGRTFRPYAMGWYRQAPGKERELVAAIDSSGTSTYYADSVKGRFTISRDNAKNTVYLQMNCLKPEDTAVYYCNTSLKRRRLRFNYWGQGTQVTVSS,low polyreactivity
18,QVQLVESGGGLVQAGGSLRLSCAASGYTLGVNAMGWYRQAPGKERELVAAINYIDTRTYYADSVKGRFTISRDNAKNTVYLQMNSLKPEDTAVYYCAALPYVPWVKRYYYWGQGTQVTVSS,low polyreactivity
19,QVQLVESGGGLVQAGGSLSLSWAASGFIFRLYAMGWYRQAPGKERELVSGITQRGGRTYYADSLKGRFTISRDNANNTVYLQMNSLKPEDTAVYYCAADRCEYVYWGQGTQVTVSS,high polyreactivity
20,QVQLVESGGGLVQAGASLSLSCAASGFTFEDYAMGWYRQAPGKERELVAAISSRGTSTYYADSVKGRFTISRDNAKNTVYLQMNSLKREDTAVYYCNIRGWYPYGYWGQGTQVTVSS,high polyreactivity
21,QGQLVESGGGLVQAGGSLRLSCAASGRTFYYNGMGWYRQAPGKERELVATITNGGSTNYADSVKGRFTISRDNAKNTVYLQMNSLKPEDTAVYYCAKTLASDCYDYWGQGTQVTVSS,low polyreactivity
